Data set [1] has as its system AT1R. The conditions noted are these: ref Li et al., 2018, cited from earlier work. The source says: Our seminal finding is of significant importance to hemorphin and GPCR pharmacology and their implication in human physiology. Indeed, in addition to hemorphin’s effect on opioid receptors ([Brantl et al., 1986]; [Davis et al., 1989]; [Liebmann et al., 1989]; [Glämsta et al., 1992]; [Yukhananov et al., 1994]; [Nyberg et al., 1997]; [Szikra et al., 2001]; [Cheng et al., 2012]), we report yet another GPCR member (AT1R) that is a target of hemorphins with the plausible implication in the physiology and pathophysiology of vascular and renal systems. The action of LVV–hemorphin-7 on AT1R is consist ...

Data set [2] has as its target T1, AT1R (AT1R-Rluc/Venus-Gαq coupling) (Homo sapiens, UniProt P30556).
T1 sequence (P30556 1-359): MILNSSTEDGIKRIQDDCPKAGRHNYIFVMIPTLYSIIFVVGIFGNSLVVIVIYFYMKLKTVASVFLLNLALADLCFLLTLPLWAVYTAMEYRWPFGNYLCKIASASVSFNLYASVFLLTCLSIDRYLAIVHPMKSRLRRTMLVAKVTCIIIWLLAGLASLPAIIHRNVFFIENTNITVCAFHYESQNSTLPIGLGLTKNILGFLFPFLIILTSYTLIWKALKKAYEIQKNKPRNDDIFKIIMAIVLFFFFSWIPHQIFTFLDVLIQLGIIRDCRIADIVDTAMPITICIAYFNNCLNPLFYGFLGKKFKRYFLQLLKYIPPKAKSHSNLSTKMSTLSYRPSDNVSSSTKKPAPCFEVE
As to the kind of experiment: Real-time BRET kinetics, AT1R-Rluc and Venus-Gαq in HEK293 cells. The conditions noted are these: 10 µM alone, sequential protocol, after 35 min (Figure 3C). (Bioluminescence resonance energy transfer reports proximity on the nanometre scale.)
Experimental: (§1) HEK293 cells were maintained at 37°C, 5% CO2 in complete medium (Dulbecco modified Eagle medium (DMEM) containing 0.3 mg/ml glutamine, 100 IU/ml penicillin, and 100 µg/ml streptomycin) supplemented with 10% fetal calf serum (GIBCO BRL, Carlsbad, CA, USA). Transient transfections for BRET were carried out in 96-well plates and IP1 and ERK1/2 assays in six-well plates using Lipofectamine 2000 (Invitrogen). […] The plasmid solution was then mixed with 25 µl of serum-free DMEM containing 0.5 µl of Lipofectamine 2000 and incubated for 20 min at room temperature. Cells (10^5 in 150 µl/well) resuspended in DMEM supplemented with 10% fetal calf serum (FCS) were then incubated with the final DNA-Lipofectamine 2000 mix (50 µl/well) and seeded in 96-well plates. All assays were carried out 48 h posttransfection.
For the real-time BRET kinetics, different protocols were used. Cells were first washed with 50 µl/well of PBS and resuspended in 40 µl/well of PBS containing coelenterazine h (5 µM), and BRET signals were measured in real time for ∼5 min to determine the baseline.
All kinetic and the sigmoidal dose–response curves were fitted to appropriate nonlinear regression equations using GraphPad Prism software (San Diego, CA, USA). Statistical analyses were performed with two-way ANOVA and Tukey multiple-comparisons test to determine statistical significance between the different conditions.

For data set [3] the following is noted: among hemorphin peptides; ref not attached to the sentence (next sentence: Karelin et al., 1994; Moeller et al., 1997); cited from earlier work. The source says: Hemorphins are endogenous hemoglobin-derived peptides that were initially reported to have opiate-like activity. They are normally released from hemoglobin beta-chain during physiological or pathophysiological conditions. These peptides are 4 to 10 amino acids long and share a common Tyr-Pro-Trp-Thr tetrapeptide core (YPWT or hemorphin-4) ([Liebmann et al., 1989]; [Zhao et al., 1995]; [Ivanov et al., 1997]; [Nyberg et al., 1997]). A number of different hemorphin peptides have been identified including hemorphin-4, hemorphin-7, and LVV–hemorphin-4, -6, and -7 ([Brantl et al., 1986]; [Piot et al ...

The target of data set [4] is T1, AT1R (AT1R-Rluc/Venus-Gαq coupling). As to the kind of experiment: BRET between AT1R-Rluc and Venus-Gαq (dose-response / 30 min endpoint) in HEK293 cells. The arrangement: expressed in transfected cells; host or cells: HEK293, transient transfection (Lipofectamine 2000). Format: cell-based. As to the method:
All assays were carried out 48 h posttransfection.
BRET technology was used for dose–response analysis as previously described ([Ayoub et al., 2015]; [Ayoub, 2016]; [Ayoub et al., 2016]). […] Following treatment, 10 µl of coelenterazine h (Promega) in PBS was added to a final concentration of 5 µM, and BRET measurements were carried out using the Tristar 2 multilabel plate reader (Berthold, Germany) allowing sequential measurements of light emission at 480 and 540 nm.

Data set [5] addresses T2, AT1R (AT1R-WT) (Homo sapiens, UniProt P30556).
T2 sequence (P30556 1-359): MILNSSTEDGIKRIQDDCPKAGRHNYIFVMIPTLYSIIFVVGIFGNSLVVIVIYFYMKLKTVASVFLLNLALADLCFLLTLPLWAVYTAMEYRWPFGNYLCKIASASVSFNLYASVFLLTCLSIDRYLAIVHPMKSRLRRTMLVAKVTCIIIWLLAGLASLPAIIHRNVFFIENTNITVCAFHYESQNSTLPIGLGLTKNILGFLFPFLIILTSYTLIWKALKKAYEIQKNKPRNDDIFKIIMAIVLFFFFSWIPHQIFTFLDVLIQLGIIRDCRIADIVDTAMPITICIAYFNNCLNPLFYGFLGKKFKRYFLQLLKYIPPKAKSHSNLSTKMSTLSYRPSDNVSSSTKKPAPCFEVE
The following applies: 10 µM irbesartan 15 min, then 5 nM AngII ± 10 µM LVV–hemorphin-7, 30 min, 37°C (Figure 5D).
Experimental: as §1
Measurement of IP1 accumulation was performed in HEK293 cells expressing either AT1R-Rluc with Venus-Gαq like for BRET assays or untagged AT1R (AT1R-WT) alone using the IP-One Tb kit (Cisbio Bioassays, France) according to manufacturer’s instructions. […] The cells were then lysed by adding the supplied assay reagents, and the assay was incubated for 1 h at room temperature. Fluorescence emission was measured at 620 and 665 nm, 50 µs after excitation at 340 nm using the Tristar 2 multilabel plate reader (Berthold, Germany). […]

Data set [6] deals with untagged AT1R (AT1R-WT) (human) (UniProt P30556).
The target of data set [7] is AT1R-RlucII (angiotensin II type 1 receptor fused to Renilla luciferase) (human) (UniProt P30556).
The target is the same in data set [8]. This is another data set of the same source.
Data set [9] has the same target. The source holds these as a separate data set.
Data set [10] has the same target. The source holds these as a separate data set.

As to `NC(CCS)C(=O)O` (centres unmarked) [homocysteine], in data set [1] (binding experiments), the “binding site on AT1R” value is reported as “binding of homocysteine to the orthosteric binding site of AT1R”. Moreover, in [1], the “positive allosteric modulation of AT1R” value is on record as “PAM of AT1R”.

For `CC(C)C[C@H](N)C(=O)N[C@H](C(=O)N[C@H](C(=O)N[C@@H](Cc1ccc(O)cc1)C(=O)N1CCC[C@H]1C(=O)N[C@@H](Cc1c[nH]c2ccccc12)C(=O)N[C@H](C(=O)N[C@@H](CCC(N)=O)C(=O)N[C@@H](CCCNC(=N)N)C(=O)N[C@@H](Cc1ccccc1)C(=O)O)[C@@H](C)O)C(C)C)C(C)C` [LVV–hemorphin-7], the “BRET increase, LVV–hemorphin-7 alone” value in [2] is given as about 10%. In data set [3], the stability result is on record as “most stable form”. Further, the “EC50 of potentiation of AngII-mediated BRET (in words)” value in data set [4] (15 min preincubation, then 10 nM AngII 20 min (Figure 2E)) is given as “micromolar range”.

Turning to `CCCCC1=NC2(CCCC2)C(=O)N1Cc1ccc(-c2ccccc2-c2nnn[nH]2)cc1` [irbesartan], in data set [5], the “inhibition of AngII-mediated IP1 production and its potentiation by LVV–hemorphin-7” value is listed as “completely abolished”. In data set [4] (10 µM irbesartan 15 min, then 10 nM AngII ± 10 µM LVV–hemorphin-7, 30 min, 37°C (Figure 4A), n = 3), the “inhibition of AngII-mediated BRET signals and of their potentiation by LVV–hemorphin-7” value is reported as “full inhibition”.

Regarding LVVYPWTQRF [LVV–hemorphin-7], in [6], the ERK1/2 phosphorylation (folds over untreated cells), cells expressing AT1R-WT, 10 µM LVV–hemorphin-7 alone, 5 min was determined as 6.74 folds; the ERK1/2 phosphorylation (folds over untreated cells), cells expressing AT1R-WT, cotreatment with AngII and LVV–hemorphin-7 came out at 12.8 folds. For the same molecule, in data set [7], the ERK1/2 phosphorylation (folds over untreated cells), cells coexpressing AT1R-Rluc and Venus-Gαq, cotreatment with 10 nM AngII and 10 µM LVV–hemorphin-7 for 5 min amounted to 6.71 folds; the ERK1/2 phosphorylation (folds over untreated cells), cells coexpressing AT1R-Rluc and Venus-Gαq, pretreatment with LVV–hemorphin-7 for 15 min followed by AngII for 5 min turned out to be 6.7 folds. In [8], the E max (%) of AngII with LVV–hemorphin-7, BRET dose–response, AT1R-Rluc + Venus-Gαq; AngII without LVV–hemorphin-7 taken as 100% was determined as 109%; the E max (%) of AngII with LVV–hemorphin-7, BRET dose–response, AT1R-Rluc + yPET–β-arrestin 2; AngII without LVV–hemorphin-7 taken as 100% turned out to be 104%; the E max (%) of AngII with LVV–hemorphin-7, BRET kinetics 1 (Figures 3A, B), AT1R-Rluc + Venus-Gαq; 10 nM AngII alone taken as 100% was found to be 263%; the E max (%) of AngII with LVV–hemorphin-7, BRET kinetics 1 (Figures 3A, B), AT1R-Rluc + yPET–β-arrestin 2; 10 nM AngII alone taken as 100% was determined as 240%. For the same molecule, in data set [8], the E max (%) of AngII with LVV–hemorphin-7, BRET kinetics 2 (Figures 3C, D), AT1R-Rluc + Venus-Gαq; 10 nM AngII alone taken as 100% was 171% and the E max (%) of AngII with LVV–hemorphin-7, BRET kinetics 2 (Figures 3C, D), AT1R-Rluc + yPET–β-arrestin 2; 10 nM AngII alone taken as 100% stood at 200%. In addition, in data set [9], the Log EC50 of LVV–hemorphin-7 for potentiation of the BRET increase between AT1R-Rluc and Venus-Gαq induced by 10 nM AngII (log (concentration unit not given)) is -5.41; the Log EC50 of LVV–hemorphin-7 for potentiation of the BRET increase between AT1R-Rluc and yPET–β-arrestin 2 induced by 10 nM AngII (log (concentration unit not given)) is -5.48. In addition, the BRET increase in sequential real-time kinetics (AT1R-Rluc with Venus-Gαq or yPET–β-arrestin 2), 10 µM LVV–hemorphin-7 alone, after 35 min in [10] was determined as 10%.
